From US20110123544A1 (published 2011) come the findings set out here.

Read-outs that look alike come from different tables or passages of the source.

Assay [1] concerns the target T1, recombinant human interleukin 12 (p40/p35 heterodimer) (human, UniProt P29460 23-328; P29459 23-219).
T1 chain 1: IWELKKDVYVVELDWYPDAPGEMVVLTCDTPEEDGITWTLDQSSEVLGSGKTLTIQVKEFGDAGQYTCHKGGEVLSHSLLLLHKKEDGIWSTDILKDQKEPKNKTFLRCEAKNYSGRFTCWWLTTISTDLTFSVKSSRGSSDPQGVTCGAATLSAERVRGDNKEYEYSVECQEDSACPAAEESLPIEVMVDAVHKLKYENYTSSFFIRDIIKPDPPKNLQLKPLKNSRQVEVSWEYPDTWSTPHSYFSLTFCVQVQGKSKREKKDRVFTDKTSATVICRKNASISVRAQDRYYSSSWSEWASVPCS
T1 chain 2: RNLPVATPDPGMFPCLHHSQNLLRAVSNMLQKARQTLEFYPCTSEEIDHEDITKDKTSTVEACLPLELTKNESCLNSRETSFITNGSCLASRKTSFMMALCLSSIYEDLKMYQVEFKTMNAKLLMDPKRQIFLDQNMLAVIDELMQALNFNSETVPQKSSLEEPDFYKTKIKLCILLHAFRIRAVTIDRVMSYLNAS
Put plainly: BIAcore.

In assay [2] the target is T1, recombinant human interleukin 12 …. Put plainly: BIAcore.

Consider HGSADN [Y61 H98 A], for which the koff (commonly the rate constant with which the complex falls apart) in assay [1] was 0.000673 s⁻¹.

On to HGSHSN [Y61 H101 S], for which, in assay [1], the koff was 0.000449 s⁻¹.

As to HGIHDN [Y61 H97 I], the koff in assay [1] amounted to 0.00208 s⁻¹.

In the case of HGSHHN [Y61 H101 H], in assay [1], the koff is 0.00327 s⁻¹.

Regarding HVSHDN [Y61 H96 V], the koff in assay [1] was found to be 0.000382 s⁻¹.

As to LGSHDN [Y61 H95 L], the koff in assay [1] worked out at 0.00147 s⁻¹.

Turning to HGTHDN [Y61 H97 T], the koff in assay [1] was 0.000588 s⁻¹.

Take FTFSSCGMH [Y61 H32 C]: in assay [2], the koff stood at 0.00383 s⁻¹.

As for FTFSSSGMH [Y61 H32 S], in assay [2], the koff is 0.00158 s⁻¹.

For the molecule HDSHDN [Y61 H96 D], the koff in assay [1] was determined as 0.00224 s⁻¹.

As for HPSHDN [Y61 H96 P], in assay [1], the koff worked out at 0.00129 s⁻¹.

With HMSHDN [Y61 H96 M], in assay [1], the koff came to 0.00204 s⁻¹.

As to FTFSSYIMH [Y61 H33 I], in assay [2], the koff was 0.0025 s⁻¹.

As to FTFSSEGMH [Y61 H32 E], the off-rate (koff) in assay [2] was found to be 0.00229 s⁻¹.

On to QGSHDN [Y61 H95 Q], for which, in assay [1], the koff is 0.000859 s⁻¹.

As for FTFSHYGMH [Y61 H31 H], the koff in assay [2] worked out at 0.000309 s⁻¹.

In the case of FTFESYGMH [Y61 H30 E], the koff in assay [2] was found to be 0.000228 s⁻¹.

For HGDHDN [Y61 H97 D], the koff in assay [1] stood at 0.00202 s⁻¹.

On to HWSHDN [Y61 H96 W], for which the koff in assay [1] turned out to be 0.00197 s⁻¹.

Regarding HRSHDN [Y61 H96 R], the dissociation rate constant (koff) in assay [1] turned out to be 0.000962 s⁻¹.

Consider FTFSTYGMH [Y61 H31 T], for which the koff in assay [2] was determined as 0.000716 s⁻¹.

In the case of HGNHDN [Y61 H97 N], the koff in assay [1] worked out at 0.00221 s⁻¹.

Take FTFSQYGMH [Y61 H31 Q]: the koff in assay [2] came to 0.000152 s⁻¹.

With FTFSSYVMH [Y61 H33 V], in assay [2], the koff is 0.00191 s⁻¹.

Consider HHSHDN [Y61 H96 H], for which, in assay [1], the koff was 0.000237 s⁻¹.

Turning to FTFHSYGMH [Y61 H30 H], the koff in assay [2] was found to be 0.000296 s⁻¹.

As to FTFSSYEMH [Y61 H33 E], the koff in assay [2] amounted to 0.00189 s⁻¹.

Consider HGSHYN [Y61 H101 Y], for which the koff in assay [1] was found to be 0.00465 s⁻¹.

Regarding FTFSCYGMH [Y61 H31 C], in assay [2], the koff amounted to 0.00012 s⁻¹.

FTFSAYGMH [Y61 H31 A]: the koff in assay [2] is 0.000205 s⁻¹.

For the molecule KGSHDN [Y61 H95 K], the koff in assay [1] amounted to 0.00228 s⁻¹.

Consider HGFHDN [Y61 H97 F], for which the koff in assay [1] came to 0.0018 s⁻¹.

Consider FTFSSYSMH [Y61 H33 S], for which the koff in assay [2] came to 0.000399 s⁻¹.

Turning to HGSTDN [Y61 H98 T], the koff in assay [1] was found to be 0.000227 s⁻¹.

For HGPHDN [Y61 H97 P], the koff in assay [1] came to 0.003 s⁻¹.

With HGSHRN [Y61 H101 R], the koff in assay [1] turned out to be 0.0011 s⁻¹.

Regarding FTFSSYYMH [Y61 H33 Y], the dissociation rate constant (koff) in assay [2] was 0.0025 s⁻¹.

Take HLSHDN [Y61 H96 L]: the koff in assay [1] was 0.00261 s⁻¹.

For the molecule FTFSRYGMH [Y61 H31 R], the koff in assay [2] is 0.000664 s⁻¹.

On to EGSHDN [Y61 H95 E], for which, in assay [1], the koff came out at 0.00231 s⁻¹.

As for HGHHDN [Y61 H97 H], the koff in assay [1] is 0.00191 s⁻¹.

Regarding FTFNSYGMH [Y61 H30 N], the koff in assay [2] was 0.000301 s⁻¹.

Take FTFSSAGMH [Y61 H32 A]: the koff in assay [2] stood at 0.00166 s⁻¹.

Consider FTFSSYCMH [Y61 H33 C], for which the koff in assay [2] is 0.00286 s⁻¹.

For FTFYSYGMH [Y61 H30 Y], in assay [2], the koff was 0.000319 s⁻¹.

In the case of HGSLDN [Y61 H98 L], in assay [1], the koff turned out to be 0.000598 s⁻¹.

For the molecule SGSHDN [Y61 H95 S], the off-rate (koff) in assay [1] was found to be 0.00193 s⁻¹.

Regarding FTFSSVGMH [Y61 H32 V], the koff in assay [2] amounted to 0.00134 s⁻¹.

Take FTFSSYMMH [Y61 H33 M]: the koff in assay [2] is 0.000215 s⁻¹.

In the case of FTFRSYGMH [Y61 H30 R], the koff in assay [2] worked out at 0.000245 s⁻¹.

Regarding FTFSSLGMH [Y61 H32 L], in assay [2], the koff is 0.00226 s⁻¹.

In the case of HGSVDN [Y61 H98 V], in assay [1], the koff worked out at 0.000293 s⁻¹.

As for FTFSEYGMH [Y61 H31 E], in assay [2], the koff turned out to be 0.000219 s⁻¹.
